Where a chain is given by its changes, count along the chain named.
What was measured:
IL-8 [1] = biological target: IL-8 (UniProt P10145); assay: cell-based or functional assay
IL-8 (72-mer) = IL-8 (72-mer) (UniProt P10145); assay: binding kinetics, FIG. 1B
IL-8 (77-mer) = IL-8 (77-mer) (UniProt P10145); assay: binding kinetics, FIG. 1B
IL-8 [2] = biological target: IL-8 (UniProt P10145); assay: SPR, immobilized IL-8, scFv, 25 C
IL-8 [3] = biological target: IL-8 (UniProt P10145); assay: SPR, scFv, preliminary KD, lowest and highest value

Sequence of IL-8 (P10145 28-99 limits assumed): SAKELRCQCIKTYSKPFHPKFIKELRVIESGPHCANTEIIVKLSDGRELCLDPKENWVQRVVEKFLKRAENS
Sequence of IL-8 (72-mer) (P10145 28-99 limits assumed): as above
Sequence of IL-8 (77-mer) (P10145 23-99 limits assumed): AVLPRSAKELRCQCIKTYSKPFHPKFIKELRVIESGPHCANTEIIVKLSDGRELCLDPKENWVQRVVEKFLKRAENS

B1: scFv 49-31 (scFv, part only; not given: linker and domain order, V domains shown, not shown: another chain or arm of the molecule; small tags and cut ends)
VH: EVQLVESGGGLVQPGGSLRLSCAASGFTFSSYYMHWVRQAPGKGLEWVSAISGGGSSTYYADSVKGRFTISRDNSKNTLYLQMNSLRAEDTAVYYCARDLRIFEGRDAGFDVWGQGTLVTVS
VL: DIQMTQSPSSLSASVGDRVTITCQASQDISNYLNWYQQKPGKAPKLLIYDASNLETGVPSRFSGSGSGTDFTFTISSLQPEDIATYYCQQDDDVPWTFGQGTKVEIK
- reduction of transmigration of neutrophils (IL-8 mediated neutrophil chemotaxis, transwell, 1 nM IL-8, 1.5 and 3 hours) (IL-8 [1]): 30 to 70%
- Kd (IL-8 (72-mer)): 0.147 nM
- Kd (IL-8 (77-mer)): 0.12 nM
- Kd (IL-8 [2]): 0.009 to 0.048 nM
- Kd (IL-8 [3]): 0.009 to 0.048 nM

B2: scFv 49-1 (scFv, part only; not given: linker and domain order, V domains shown, not shown: another chain or arm of the molecule; small tags and cut ends)
VH: EVQLVESGGGLVQPGGSLRLSCAASGFTFSSYWMHWVRQAPGKGLEWVSAISWSGGSTSYADSVKGRFTISRDNSKNTLYLQMNSLRAEDTAVYYCARDLTWWVQAFDVWGQGTLVTVSS
VL: B1 VL with D91V, V94S, W96L
- Kd (IL-8 [2]): 2.66 nM

From patent publication US20200377587A1
